In the assay the test system is sites of DNA damage in U2OS cells. The experiment in a line: Recruitment of YFP-ALC1 to DNA breaks upon laser damage. The class given is cell-based, Homo sapiens. The following applies: YFP-ALC1 R860W background, 405 nm laser damage. The procedure: U2OS Flp-In T-REx cells were a kind gift from Durocher lab and maintained in DMEM medium (GIBCO/Thermo Fisher) supplemented with 10% FBS and Pen/Strep with 15.5 μg/ml zeocin (Invitrogen) and 4 μg/ml blasticidin. CRISPR inactivation of ALC1 was carried out in Flp-In T-REx U2OS cells by transiently expressing Cas9 and gRNA targeting Exon3 of ALC1 F-oligo: CACCGCAG GAAGATTAAATGATGAA R-oligo: […] with px459 (addgene) ([Ran et al., 2013]). Single cell clones were grown by limiting dilution and then screened for ALC1 expression by western blot. […]
Cells were seeded on 8 well Lab-Tek chamber slides (Thermo Fisher Scientific). […] In order to monitor the association kineticsof YFP-tagged ALC1 at sites of laser micro-irradiation, the time evolution of YFP fluorescence in the damaged region of interest was recorded upon excitation with a 488 nm laser. Recruitment of YFP to bleached ROIs was analyzed in FIJI ([Schindelin et al., 2012]) and data were processed in R. In brief, nuclear masks were segmented by local thresholding. […] In order to quantify recruitment, the mean YFP fluorescence intensities at a given time point t (It) were normalized to the mean initial fluorescence intensities I0 of the same region of interest. Normalized intensities were additionally multiplied with BGI0/BGIt to correct for photobleaching, where BGI represents the background fluorescence intensity. […]

The source of these data is article PMC7116876, “Mechanistic Insights into Regulation of the ALC1 Remodeler by the Nucleosome Acidic Patch” (Cell reports, 2020).

B1: R611A/S612A: YFP-ALC1 with R611A/S612A linker mutation and R860W, expressed in U2OS cells (protein, UniProt Q86WJ1 1-897, looked up, variant R611A S612A R860W)
Chromodomain-helicase-DNA-bind …: MERAGATSRGGQAPGFLLRLHTEGRAEAARVQEQDLRQWGLTGIHLRSYQLEGVNWLAQRFHCQNGCILGDEMGLGKTCQTIALFIYLAGRLNDEGPFLILCPLSVLSNWKEEMQRFAPGLSCVTYAGDKEERACLQQDLKQESRFHVLLTTYEICLKDASFLKSFPWSVLVVDEAHRLKNQSSLLHKTLSEFSVVFSLLLTGTPIQNSLQELYSLLSFVEPDLFSKEEVGDFIQRYQDIEKESESASELHKLLQPFLLRRVKAEVATELPKKTEVVIYHGMSALQKKYYKAILMKDLDAFENETAKKVKLQNILSQLRKCVDHPYLFDGVEPEPFEVGDHLTEASGKLHLLDKLLAFLYSGGHRVLLFSQMTQMLDILQDYMDYRGYSYERVDGSVRGEERHLAIKNFGQQPIFVFLLSTRAGGVGMNLTAADTVIFVDSDFNPQNDLQAAARAHRIGQNKSVKVIRLIGRDTVEEIVYRKAASKLQLTNMIIEGGHFTLGAQKPAADADLQLSEILKFGLDKLLASEGSTMDEIDLESILGETKDGQWVSDALPAAEGGSRDQEEGKNHMYLFEGKDYSKEPSKEDRKSFEQLVNLQKTLLEKASQEGAALRNKGSVLIPGLVEGSTKRKRVLSPEELEDRQKKRQEAAAKRRRLIEEKKRQKEEAEHKKKMAWWESNNYQSFCLPSEESEPEDLENGEESSAELDYQDPDATSLKYVSGDVTHPQAGAEDALIVHCVDDSGHWGRGGLFTALEKRSAEPRKIYELAGKMKDLSLGGVLLFPVDDKESRNKGQDLLALIVAQHRDRSNVLSGIKMAALEEGLKKIFLAAKKKKASVHLPRIGHATKGFNWYGTERLIWKHLAARGIPTYIYYFPRSKSAVLHSQSSSSSSRQLVP
modifications: YFP fusion
notes: YFP-ALC1 with R611A/S612A linker mutation and R860W, expressed in U2OS cells
With B1, where the note is “n ≥ 131 traces from 3 independent experiments”, the “overall extent of ALC1 recruitment to sites of DNA damage” value was “notably compromised the overall extent of ALC1 recruitment”. Further, where the note is “single-exponential half times, n ≥ 131 traces”, the “recruitment kinetics at sites of DNA damage” value is given as “only modestly delayed recruitment kinetics”.
